B1: Zinc finger homeobox protein 4, residues 2183 to 2238; numbered along this chain, Q86UP3 (parent)
chain: SSRTRFTDYQLRVLQDFFDTNAYPKDDEIEQLSTVLNLPTRVIVVWFQNARQKARK

Variants of: B1
Assay: abundance fitness (aPCA) (normalised: wild type 0, dead -1); higher = more abundant; growth selection in yeast, the domain comes from the species named
Conditions: Homo sapiens

Abundance fitness of substitutions, site by site:
R12: P -0.608, H -0.166, I -0.623, Y -0.702, Q -0.014, G -0.147, A -0.263, V -0.544, M -0.631, L -0.309, C -0.732, S -0.203, N -0.017, T -0.066, F -0.81
I29: W -0.352, T -0.256, E -0.614, G -0.88, P -1.23, N -0.809, S -0.702, K -0.576, H -0.633, D -0.876, Q -0.447, V -0.174, Y 0.004, F -0.152, L -0.023, A -0.266, M -0.03, C -0.015, R -0.692
N21: A -0.176, W -0.556, Q -0.497, T -0.027, Y -0.565, S -0.2, E -0.197, F -0.451, K -0.201, V -0.279, D -0.128, H -0.219, C 0.346, M -0.414, P -0.718, L -0.488, G -0.387, I -0.187, R -0.181
T20: Q -0.196, F -0.503, G -0.041, K 0.133, V -0.199, E -0.22, L -0.205, N -0.058, M -0.101, W -0.158, D -0.205, C 0.002, P -0.57, A 0.108, R 0.072, H -0.179, S -0.047, I -0.308
Y23: E 0.361, R 0.047, P -0.345, M 0.031, N -0.369, F -0.084, C -0.228, T -0.093, S 0.032, L 0.008, Q -0.173, G -0.169, I -0.219, D 0.313, W -0.061, V -0.039, A -0.097
E28: A -0.036, C -0.18, Y -0.341, H -0.188, R -0.25, I -0.741, V -0.34, N -0.287, K -0.011, M -0.507, D 0.031, Q 0.061, T -0.069, S -0.18, W -0.596, F -0.448, G -0.207
P24: M -0.596, C -0.567, E -0.823, I -0.292, A -0.272, Y -0.746, Q -0.703, R -0.657, H -0.703, K -0.817, N -0.945, T -0.698, L -0.419, G -0.813, D -0.832, F -0.792, W -0.593, V -0.501
F17: D -0.591, A -0.006, N 0.049, I -0.135, Y -0.196, L -0.12, M -0.004, H 0.079, V -0.25, G -0.243, S -0.097, K -0.094, P -1, T -0.086, Q 0.051, E -0.252, R 0.02
K25: N -0.156, P -0.244, E -0.455, A -0.203, Y -0.76, C -0.111, R -0.047, W -0.387, F -0.467, G -0.072, L -0.233, V -0.068, S -0.025, D -0.177, M -0.323
D16: R -0.083, Y -0.458, V -0.25, L -0.602, A -0.065, T -0.29, C -0.32, P -0.357, E 0.014, K -0.108, Q 0.027, M -0.323, N -0.034, S 0.042, W -0.838, H -0.193, I -0.644, G 0.093, F -0.806
L14: A -0.793, I -0.184, Y -1.08, M 0.049, T -0.93, N -1.15, Q -1.02, R -0.911, W -0.895, P -0.931, E -1.07, V -0.206, C -0.181, G -0.876, F -0.433, S -0.731
L11: D 0.066, Y -0.194, E 0.095, I -0.031, S 0.138, F -0.011, H -0.204, G -0.016, C -0.341, M -0.061, A -0.108, N 0.053, V -0.024, P -1.19, R -0.26, T -0.063
Q15: A -0.05, S -0.004, F -0.186, Y -0.27, N -0.158, W -0.333, R -0.107, P -0.708, L -0.036, M 0.058, E -0.139, T -0.069, I -0.141, G -0.102, V -0.095, D -0.072
F18: N -0.459, D -0.887, R -0.222, T -0.449, Y 0.101, H -0.139, Q -0.329, G -0.711, C -0.139, S -0.225, P -0.891, A -0.117, E -0.486, K -0.194, I -0.16, W -0.027
V13: T 0.013, H 0.203, N -0.064, R 0.079, W -0.377, S -0.068, C -0.181, F -0.056, Y 0.092, Q 0.057, D 0.079, A -0.012, I -0.001, M 0.44, P -1.02, G 0.047
D26: N -0.114, Y -0.234, W -0.047, F -0.087, C -0.255, H -0.021, S -0.049, P -0.193, L -0.257, I -0.427, E -0.163, K 0.067, A 0.003, M -0.056, V -0.048, G 0.005, T -0.071, R -0.05, Q -0.031
D27: R -0.038, G 0.162, F 0.019, T -0.256, S -0.009, H 0.048, N 0.001, Y -0.171, A -0.378, M -0.012, V -0.375, K -0.029, L -0.004, Q 0.08
Q10: M -0.14, S -0.335, Y -0.787, L -0.736, T -0.176, H -0.118, W -0.826, I -0.391, K -0.512, R -0.657, V -0.547
D19: S -0.131, G -0.032, T 0.164, P -0.43, Y -0.171, F -0.146, A 0.108, E -0.235, W -0.292, I -0.234, C -0.236, L -0.028, M -0.061, H -0.173, Q -0.071, K -0.074, R -0.147, N -0.087
E30: C -0.18
A22: S 0.074, W -0.169, F -0.228, E -0.016, P 0.133, R 0.005, D 0.002, L -0.219, C 0.033, I -0.065, Q 0.005, V -0.086, Y -0.309, G -0.186, N -0.077, K -0.116, M 0.153
